Results published in article PMC8739950, “The MocR/GabR Ectoine and Hydroxyectoine Catabolism Regulator EnuR: Inducer and DNA Binding” (Frontiers in Microbiology, 2021).
Like-named read-outs stand apart in the source and are kept apart here.

What was measured:
[1] = molecular target: T1, EnuR (Ruegeria pomeroyi, UniProt Q5LUA6); test: microscale thermophoresis; assay type: binding
T1 construct: gene gntR; full-length EnuR with C-terminal Strep-tag-II, PLP-containing
T1 sequence (Q5LUA6 1-464): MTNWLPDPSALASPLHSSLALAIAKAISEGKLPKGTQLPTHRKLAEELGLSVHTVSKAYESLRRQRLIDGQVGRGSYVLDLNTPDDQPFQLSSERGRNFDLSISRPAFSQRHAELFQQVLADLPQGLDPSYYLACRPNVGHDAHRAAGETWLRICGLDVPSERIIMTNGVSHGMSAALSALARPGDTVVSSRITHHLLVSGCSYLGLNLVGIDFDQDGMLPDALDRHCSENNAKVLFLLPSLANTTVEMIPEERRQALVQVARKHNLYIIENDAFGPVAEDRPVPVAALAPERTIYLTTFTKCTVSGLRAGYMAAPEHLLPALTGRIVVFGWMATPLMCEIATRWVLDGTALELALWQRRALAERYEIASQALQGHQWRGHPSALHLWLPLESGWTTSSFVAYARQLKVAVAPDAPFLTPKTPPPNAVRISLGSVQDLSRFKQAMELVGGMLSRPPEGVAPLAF

[2] = molecular target: T2, EnuR (Ruegeria pomeroyi, UniProt Q5LUA6); test: microscale thermophoresis; assay type: binding; remark: listed apart in the source
T2 construct: gene gntR; full-length EnuR with C-terminal Strep-tag-II, PLP-containing

[3] = molecular target: C-terminal aminotransferase domain (ATD) of wild-type EnuR from Ruegeria pomeroyi DSS-3, Strep-tag II fusion (Ruegeria pomeroyi DSS-3); test: SEC; HiLoad 16/600 Superdex 200 pg column; masses estimated against marker proteins (thyroglobulin, alcohol dehydrogenase, bovine albumin, carbonic anhydrase); quaternary assembly of the Strep-Tactin purified proteins
[4] = molecular target: C-terminal aminotransferase domain of the EnuR* (Lys302His) mutant from Ruegeria pomeroyi DSS-3, Strep-tag II fusion (Ruegeria pomeroyi DSS-3); test: as above
[5] = molecular target: Ectoine nutrient utilization regulator (EnuR) from Ruegeria pomeroyi DSS-3, full-length wild type, EnuR-Strep-tag II (Ruegeria pomeroyi DSS-3); test: as above
[6] = molecular target: EnuR* (Lys302His) mutant of full-length EnuR from Ruegeria pomeroyi DSS-3, EnuR*-Strep-tag II (Ruegeria pomeroyi DSS-3); test: as above
[7] = tested on: EnuR (C-terminal Strep-tag II fusion, PLP-bound) (Ruegeria pomeroyi DSS-3); test: MST; details: PLP-containing EnuR, 200 nM; MST: 10 mM Tris-HCl pH 7.5, 150 mM NaCl, 0.07% Tween20, 21 C; 200 nM NT-647-labeled EnuR titrated with DNA

CC(=O)N[C@H](C(=O)O)[C@@H](O)CN [hydroxy-α-ADABA]
Kd [1]: 430 ± 200 nM

CC(=O)N[C@@H](CCN)C(=O)O [α-ADABA]
Kd [2]: 2550 ± 500 nM

C-terminal aminotransferase domain (ATD) of wild-type EnuR from Ruegeria pomeroyi DSS-3, Strep-tag II fusion (domain or fragment)
stoichiometry N [3]: 2

C-terminal aminotransferase domain of the EnuR* (Lys302His) mutant from Ruegeria pomeroyi DSS-3, Strep-tag II fusion (domain or fragment)
stoichiometry N [4]: 2

Ectoine nutrient utilization regulator (EnuR) from Ruegeria pomeroyi DSS-3, full-length wild type, EnuR-Strep-tag II (natural protein)
stoichiometry N [5]: 2

EnuR* (Lys302His) mutant of full-length EnuR from Ruegeria pomeroyi DSS-3, EnuR*-Strep-tag II (natural protein)
stoichiometry N [6]: 2

TAACATTGTCGCGCGACAATAAAAAAATTGACATGCAGTACAATTCCC (double strand) [MST BS WT 48 bp promoter/operator fragment]
Kd [7]: 1900 nM
